# Measurements published in article PMC6073210, “Adducin‐1 is essential for spindle pole integrity through its interaction with TPX2” (EMBO Reports, 2018).
# Where a chain is given by its changes, count along the chain named.
# B1: TPX2, endogenous in HeLa cells (natural protein, human (endogenous in HeLa), UniProt Q9ULW0 1-747, looked up)
# chain: MSQVKSSYSYDAPSDFINFSSLDDEGDTQNIDSWFEEKANLENKLLGKNGTGGLFQGKTPLRKANLQQAIVTPLKPVDNTYYKEAEKENLVEQSIPSNACSSLEVEAAISRKTPAQPQRRSLRLSAQKDLEQKEKHHVKMKAKRCATPVIIDEILPSKKMKVSNNKKKPEEEGSAHQDTAEKNASSPEKAKGRHTVPCMPPAKQKFLKSTEEQELEKSMKMQQEVVEMRKKNEEFKKLALAGIGQPVKKSVSQVTKSVDFHFRTDERIKQHPKNQEEYKEVNFTSELRKHPSSPARVTKGCTIVKPFNLSQGKKRTFDETVSTYVPLAQQVEDFHKRTPNRYHLRSKKDDINLLPSKSSVTKICRDPQTPVLQTKHRARAVTCKSTAELEAEELEKLQQYKFKARELDPRILEGGPILPKKPPVKPPTEPIGFDLEIEKRIQERESKKKTEDEHFEFHSRPCPTKILEDVVGVPEKKVLPITVPKSPAFALKNRIRMPTKEDEEEDEPVVIKAQPVPHYGVPFKPQIPEARTVEICPFSFDSRDKERQLQKEKKIKELQKGEVPKFKALPLPHFDTINLPEKKVKNVTQIEPFCLETDRRGALKAQTWKHQLEEELRQQKEAACFKARPNTVISQEPFVPKKEKKSVAEGLSGSLVQEPFQLATEKRAKERQELEKRMAEVEAQKAQQLEEARLQEEEQKKEELARLRRELVHKANPIRKYQGLEIKSSDQPLTVPVSPKFSTRFHC
# notes: TPX2, endogenous protein of HeLa cells detected with anti-TPX2; source: endogenous, HeLa whole-cell lysate
# B2: GST-TPX2 aa 120–370 fusion protein (domain or fragment, human, UniProt Q9ULW0 120-370, looked up)
# chain: RSLRLSAQKDLEQKEKHHVKMKAKRCATPVIIDEILPSKKMKVSNNKKKPEEEGSAHQDTAEKNASSPEKAKGRHTVPCMPPAKQKFLKSTEEQELEKSMKMQQEVVEMRKKNEEFKKLALAGIGQPVKKSVSQVTKSVDFHFRTDERIKQHPKNQEEYKEVNFTSELRKHPSSPARVTKGCTIVKPFNLSQGKKRTFDETVSTYVPLAQQVEDFHKRTPNRYHLRSKKDDINLLPSKSSVTKICRDPQTP
# notes: TPX2, Homo sapiens, aa 120–370 of the full-length cDNA (aa 1–747), subcloned into pGEX-2T; pGEX-2T probably places GST at the N-terminus; also called TPX2 aa 120–370 fragment; GST-tagged TPX2 aa 120–370; source: E. coli BL21, purified on glutathione agarose beads
# What was measured:
# TPX2 = TPX2 (UniProt Q9ULW0); test: anti-FLAG resin co-IP, TPX2 blot; settings: reference: FLAG-ADD1 wild type, M phase; sites S726
# [1] = target: T1, FLAG-ADD1 S726A mutant, expressed in HeLa cells (UniProt P35611 1-737, S726A); test: co-IP; HeLa cells expressing FLAG-ADD1 WT or S726A, synchronized at the M phase (nocodazole); lysates in TBS buffer (1% Triton X-100, 50 mM Tris-HCl pH 7.4, 150 mM NaCl) incubated with anti-FLAG M2 affinity resins for 16 h, eluted with FLAG peptide, blotted with anti-FLAG and anti-TPX2; settings: partners not purified
# T1 construct: adducin-1 (ADD1) with S726A; source: HeLa cells expressing FLAG-ADD1 S726A (lentiviral vector pLAS3w.Pneo), in whole-cell lysate
# T1 sequence (looked up): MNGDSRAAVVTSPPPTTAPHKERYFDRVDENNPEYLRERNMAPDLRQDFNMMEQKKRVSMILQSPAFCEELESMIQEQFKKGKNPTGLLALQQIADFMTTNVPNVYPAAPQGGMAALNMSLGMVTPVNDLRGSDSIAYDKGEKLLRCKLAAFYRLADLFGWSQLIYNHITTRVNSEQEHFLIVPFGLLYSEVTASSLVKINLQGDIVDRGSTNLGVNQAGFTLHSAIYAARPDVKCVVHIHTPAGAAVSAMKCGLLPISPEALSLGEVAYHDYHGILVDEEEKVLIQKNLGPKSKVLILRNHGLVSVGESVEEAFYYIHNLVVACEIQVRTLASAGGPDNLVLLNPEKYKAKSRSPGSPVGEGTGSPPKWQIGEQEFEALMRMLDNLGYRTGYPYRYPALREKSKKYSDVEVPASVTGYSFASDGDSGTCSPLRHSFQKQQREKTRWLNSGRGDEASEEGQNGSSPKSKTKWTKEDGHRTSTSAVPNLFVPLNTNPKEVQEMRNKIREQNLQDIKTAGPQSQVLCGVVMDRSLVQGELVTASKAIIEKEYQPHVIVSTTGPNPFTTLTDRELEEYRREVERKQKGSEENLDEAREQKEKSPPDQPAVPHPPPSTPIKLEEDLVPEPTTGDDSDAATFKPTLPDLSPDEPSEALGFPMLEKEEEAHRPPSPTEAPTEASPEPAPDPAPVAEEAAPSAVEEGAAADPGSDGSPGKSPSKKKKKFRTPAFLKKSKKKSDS
# [2] = target: T2, FLAG-ADD1 WT (adducin-1), transiently expressed in HEK293 cells (UniProt P35611 1-737); test: pull-down; GST-TPX2 fusion proteins immobilised on glutathione agarose beads, incubated with 25 μg of lysates from HEK293 cells expressing FLAG-tagged ADD1 forms at 4°C for 60 min; washed with TBS buffer; blot with anti-FLAG; settings: one partner purified
# T2 construct: adducin-1 (ADD1); pCMV-3Tag-3A probably adds a C-terminal 3x FLAG; also called FLAG-tagged ADD1; 293/FLAG-ADD1; source: HEK293, transiently transfected, in lysate
# T2 sequence (looked up): T1 sequence (looked up) with A726S
molecule,measurement,setting,value
"adducin-1 (ADD1) (from UniProt P35611) FLAG-ADD1 S726A, M phase",TPX2 co-IP binding relative to wild type,TPX2,weaker
B1,percent decrease of the interaction relative to FLAG-ADD1 WT,[1],~50%
B2,binding result,[2],binds
